The record followed here is patent publication CN111333730A (NANJING RONGJIEKANG BIOTECHNOLOGY CO LTD, dated 2020).

The experiment has as its target T1, 人源EpCAM重组胞外结构域蛋白 (human, UniProt P16422 24-265).
T1 construct: range 24-265; Made in-house in 293F cells from pcDNA3.4; coated on ELISA plates; also called EpCAM重组蛋白; 人源重组EpCAM
T1 sequence: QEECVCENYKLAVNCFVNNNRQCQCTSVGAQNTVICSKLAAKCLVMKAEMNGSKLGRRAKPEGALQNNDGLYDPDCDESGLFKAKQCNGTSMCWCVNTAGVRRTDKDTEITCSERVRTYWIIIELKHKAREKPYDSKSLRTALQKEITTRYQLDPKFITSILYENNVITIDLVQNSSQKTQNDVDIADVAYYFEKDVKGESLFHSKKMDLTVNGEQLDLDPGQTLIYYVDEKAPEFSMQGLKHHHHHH
The experiment in a line: ELISA, coated human recombinant EpCAM, anti-HA-HRP detection. On the technique in general: ELISA stands for enzyme-linked immunosorbent assay.

B1: 单域抗体 4C9 (VHH)
VHH: ESGGGSVQAGGSLRLSCAASEYTWSTTCMGWFRQAPGKEREGVAALYTRRGSTYYADSVKGRFTISRDNAENTVYLQMNSLKPEDTAMYYCASGPSTDFSCDYRRSNGYNYWGQGTQVTVSS
By EC50 is commonly meant the concentration giving half of the maximal effect. Turning to B1, the EC50 was 1.96 nM.
